Data as given in PMC2289895 (The Journal of Cell Biology, 1991).

Target: the molecule itself
Assay: SEC + co-IP

B1: NH2 epitope-tagged SIS1 (amino-terminal-tagged SIS1 protein) (natural protein)
chain: MVKETKLYDLLGVSPSANEQELKKGYRKAALKYHPDKPTGDTEKFKEISEAFEILNDPQKREIYDQYGLEAARSGGPSFGPGGPGGAGGAGGFPGGAGGFSGGHAFSNEDAFNIFSQFFGGSSPFGGADDSGFSFSSYPSGGGAGMGGMPGGMGGMHGGMGGMPGGFRSASSSPTYPEEETVQVNLPVSLEDLFVGKKKSFKIGRKGPHGASEKTQIDIQLKPGWKAGTKITYKNQGDYNPQTGRRKTLQFVIQEKSHPNFKRDGDDLIYTLPLSFKESLLGFSKTIQTIDGRTLPLSRVQPVQPSQTSTYPGQGMPTPKNPSQRGNLIVKYKVDYPISLNDAQKRAIDENF
stoichiometry N: 2
